Laboratory results from publication PMC11750101.

Biological target: RBD-HR/trimer (SARS-CoV-2) (UniProt P0DTC2)
Experiment: SEC

Substance: RBD-HR/trimer (from UniProt P0DTC2)
- stoichiometry N: 3
